In patent US20190169308A1 (ALLIGATOR BIOSCIENCE, published 2019):

T1: cynomolgus 5T4 on transfected CHO cells (Macaca mulatta (cynomolgus), UniProt F7CT46 35-420)
T1 construct: also called cyno5T4; cy5T4
T1 sequence: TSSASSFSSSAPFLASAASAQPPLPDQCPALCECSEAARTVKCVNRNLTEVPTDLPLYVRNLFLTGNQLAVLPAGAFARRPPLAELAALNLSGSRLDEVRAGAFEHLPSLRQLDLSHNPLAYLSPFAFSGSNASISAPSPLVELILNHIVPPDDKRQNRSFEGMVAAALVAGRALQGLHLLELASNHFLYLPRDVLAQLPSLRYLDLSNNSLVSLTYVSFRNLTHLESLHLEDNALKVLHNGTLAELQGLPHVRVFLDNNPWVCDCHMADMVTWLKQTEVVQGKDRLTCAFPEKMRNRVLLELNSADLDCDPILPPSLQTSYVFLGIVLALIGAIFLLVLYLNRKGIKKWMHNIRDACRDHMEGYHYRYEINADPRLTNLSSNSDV

T2: 5T4-Fc (human, UniProt Q13641 32-355, limits assumed)
T2 construct: obtained from Peter L. Stern, University of Manchester; also called h5T4-Fc; recombinant 5T4
T2 sequence (looked up): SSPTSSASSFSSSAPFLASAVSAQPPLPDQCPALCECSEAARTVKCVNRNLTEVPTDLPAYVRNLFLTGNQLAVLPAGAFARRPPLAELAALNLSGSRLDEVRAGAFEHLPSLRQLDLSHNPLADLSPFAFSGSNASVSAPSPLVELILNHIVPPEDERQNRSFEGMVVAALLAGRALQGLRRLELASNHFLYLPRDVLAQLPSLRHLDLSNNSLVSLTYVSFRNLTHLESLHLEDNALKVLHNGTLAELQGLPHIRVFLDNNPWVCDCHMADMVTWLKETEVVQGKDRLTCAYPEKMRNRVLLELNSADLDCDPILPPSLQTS

T3: human 5T4 on transfected cells (human, UniProt Q13641 32-420)
T3 construct: whole, on cells; also called B16-5T4; CHOh5T4
T3 sequence (looked up): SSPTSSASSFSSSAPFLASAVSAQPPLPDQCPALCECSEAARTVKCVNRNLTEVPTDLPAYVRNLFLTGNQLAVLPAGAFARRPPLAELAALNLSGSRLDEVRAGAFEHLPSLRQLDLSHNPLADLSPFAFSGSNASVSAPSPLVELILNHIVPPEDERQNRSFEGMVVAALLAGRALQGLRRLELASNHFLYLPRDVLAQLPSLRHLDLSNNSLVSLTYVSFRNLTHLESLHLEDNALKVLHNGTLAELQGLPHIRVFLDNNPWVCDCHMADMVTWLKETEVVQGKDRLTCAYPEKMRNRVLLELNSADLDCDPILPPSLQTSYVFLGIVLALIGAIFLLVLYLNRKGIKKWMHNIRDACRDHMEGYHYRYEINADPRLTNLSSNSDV

T4: 5T4 (SPR antigen) (UniProt Q13641 32-355, limits assumed, biotinylated on the MASS-1 platform)
T4 construct: also called biotinylated 5T4
T4 sequence (looked up): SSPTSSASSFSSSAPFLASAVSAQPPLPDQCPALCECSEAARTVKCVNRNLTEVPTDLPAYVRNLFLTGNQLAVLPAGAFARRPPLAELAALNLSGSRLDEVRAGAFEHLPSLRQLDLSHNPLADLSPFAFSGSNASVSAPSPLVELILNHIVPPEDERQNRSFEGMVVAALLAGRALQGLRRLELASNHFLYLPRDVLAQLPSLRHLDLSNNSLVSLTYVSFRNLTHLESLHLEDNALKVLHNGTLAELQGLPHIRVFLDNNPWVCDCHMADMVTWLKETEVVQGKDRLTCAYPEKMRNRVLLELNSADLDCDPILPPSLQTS


Columns and labels:
[1] = target: T1, cynomolgus 5T4 on transfected CHO cells; experiment: flow cytometry, cynomolgus 5T4-transfected CHO cells
Procedure: The potency of 5T4 antibodies in binding to cynomolgus 5T4 was determined by flow cytometry. CHO cells were stably transfected with […] (cynomolgus) 5T4. […] Samples were analysed either on a FACSCalibur or a FACSverse (BD Biosciences, Heidelberg, Germany) and mean fluorescence intensity (MFI) determined. […] To compare the EC50 values between human and cynomolgus 5T4, the cy5T4/hu5T4 ratio was calculated from the experiment with the full dose-response.

[2] = target: T2, 5T4-Fc; experiment: ELISA, coated 5T4-Fc
Procedure: ELISA was performed using a standard protocol. Plates (#655074, Greiner Bio-One GmbH, Germany) were pre-coated with 0.5 μg/ml 5T4-Fc (obtained from Peter L. Stern, University of Manchester) overnight. 5T4 antibodies were diluted from 6 to 1.5×10⁻³ μg/ml in 1:4 dilutions and added in duplicates of 50 μl to each well. Binding was detected with rabbit anti-h kappa L-chain-HRP (P0129, Dako Denmark) and the ELISA was developed with SuperSignal ELISA PICO Chemiluminescent substrate (Thermo Scientific Pierce, Rockford, Ill. USA) for 2-10 minutes and read in an automated microplate based multi-detection reader (FLUOstar OPTIMA, Netherlands).

[3] = target: T3, human 5T4 on transfected cells; experiment: flow cytometry, 5T4-transfected B16 cells
[4] = target: T4, 5T4 (SPR antigen); experiment: SPR MASS-1, biotinylated antigen on streptavidin chip, parental mAb
[5] = target: T3, human 5T4 on transfected cells; experiment: flow cytometry, human 5T4-transfected CHO cells
Procedure: Analysis of 5T4 mAb binding with flow cytometry was performed using 5T4-transfected cell lines and as negative control, mock transfected cells. Three different transfected cell lines used were used for this study; B16, A9 and CHO, transfected either with a 5T4 construct or with an empty vector control construct. Cells were stained with 5T4 antibodies diluted in FACS buffer (PBS, 0.5% BSA and 0.02% NaN₃). […] Samples were analysed either on a FACSCalibur or a FACSverse (BD Biosciences, Heidelberg, Germany) and mean fluorescence intensity (MFI) determined.
In a new attempt to calculate EC50 with flow cytometry a 5T4 mAb dose response experiment was performed using CHO cells stably transfected with human 5T4.

| EC50 [1] [pM] | EC50 [2] [pM] | EC50 [3] [pM] | Kd [4] [pM] | EC50 [5] [pM] | Binder |
| --- | --- | --- | --- | --- | --- |
| 700 | 480 | 800 | 437 | 810 | 1210/1211 (antibody, V domains shown) VH: not shown VL: DIQMTQSPSSLSASVGDRVTITCRASQSISSYLNWYQQKPGKAPKLLIYAASSLQSGVPSRFSGSGSGTDFTLTISSLQPEDFATYYCQQTYGYLHTFGQGTKLEIK |
| 1530 | 640 | 1800 |  | 510 | 1206/1207 (antibody, V domains shown) VH: EVQLLESGGGLVQPGGSLRLSCAASGFTFSGSSMSWVRQAPGKGLEWVSSIYYSGSGTYYADSVKGRFTISRDNSKNTLYLQMNSLRAEDTAVYYCARYGRNVHPYNLDYWGQGTLVTVSS VL: DIQMTQSPSSLSASVGDRVTITCRASQSISSYLNWYQQKPGKAPKLLIYAASSLQSGVPSRFSGSGSGTDFTLTISSLQPEDFATYYCQQGYYYLPTFGQGTKLEIK |
